Laboratory results as given in patent US8632989B1, “Mutant insulin degrading enzyme and methods of use” (University of Kentucky Research Foundation, priority 2011, dated 2014).
Residue numbers refer to the chain shown, from its start. Names and notes keep the numbering of the source.

T1: Abz-GGFLRKHGQ-EDDnp
T1 chain: GGFLRKHGQ

B1: rIDE-E111F (protein)
chain: MNNPAIQRIEDHIVKSPEDKREYRGLELANGIKVLLISDPTTDKSSAALDVHIGSLSDPPNIPGLSHFCFHMLFLGTKKYPKENEYSQFLSEHAGSSNAFTSGEHTNYYFDVSHEHLEGALDRFAQFFLCPLFDASCKDREVNAVDSEHEKNVMNDAWRLFQLEKATGNPKHPFSKFGTGNKYTLETRPNQEGIDVREELLKFHSTYYSSNLMAICVLGRESLDDLTNLVVKLFSEVENKNVPLPEFPEHPFQEEHLKQLYKIVPIKDIRNLYVTFPIPDLQQYYKSNPGHYLGHLIGHEGPGSLLSELKSKGWVNTLVGGQKEGARGFMFFIINVDLTEEGLLHVEDIILHMFQYIQKLRAEGPQEWVFQECKDLNAVAFRFKDKERPRGYTSKIAGKLHYYPLNGVLTAEYLLEEFRPDLIDMVLDKLRPENVRVAIVSKSFEGKTDRTEQWYGTQYKQEAIPEDVIQKWQNADLNGKFKLPTKNEFIPTNFEILALEKDATPYPALIKDTAMSKLWFKQDDKFFLPKACLNFEFFSPFAYVDPLHCNMAYLYLELLKDSLNEYAYAAELAGLSYDLQNTIYGMYLSVKGYNDKQPILLKKITEKMATFEIDKKRFEIIKEAYMRSLNNFRAEQPHQHAMYYLRLLMTEVAWTKDELKEALDDVTLPRLKAFIPQLLSRLHIEALLHGNITKQAALGVMQMVEDTLIEHAHTKPLLPSQLVRYREVQLPDRGWFVYQRRNEVHNNCGIEIYYQTDMQSTSENMFLELFCQIISEPCFNTLRTKEQLGYIVFSGPRRANGIQGLRFIIQSEKPPHYLESRVEAFLITMEKAIEDMTEEAFQKHIQALAIRRLDKPKKLSAECAKYWGEIISQQYNYDRDNIEVAYLKTLSKDDIIKFYKEMLAVDAPRRHKVSVHVLAREMDSCPVVGEFPSQNDINLSEAPPLPQPEVIHNMTEFKRGLPLFPLVKPHINFMAAKL
B2: wild type rat IDE, Example 1 (protein)
chain: TMNNPAIQRIEDHIVKSPEDKREYRGLELANGIKVLLISDPTTDKSSAALDVHIGSLSDPPNIPGLSHFCFHMLFLGTKKYPKENEYSQFLSEHAGSSNAFTSGEHTNYYFDVSHEHLEGALDRFAQFFLCPLFDASCKDREVNAVDSEHEKNVMNDAWRLFQLEKATGNPKHPFSKFGTGNKYTLETRPNQEGIDVREELLKFHSTYYSSNLMAICVLGRESLDDLTNLVVKLFSEVENKNVPLPEFPEHPFQEEHLKQLYKIVPIKDIRNLYVTFPIPDLQQYYKSNPGHYLGHLIGHEGPGSLLSELKSKGWVNTLVGGQKEGARGFMFFIINVDLTEEGLLHVEDIILHMFQYIQKLRAEGPQEWVFQECKDLNAVAFRFKDKERPRGYTSKIAGKLHYYPLNGVLTAEYLLEEFRPDLIDMVLDKLRPENVRVAIVSKSFEGKTDRTEQWYGTQYKQEAIPEDVIQKWQNADLNGKFKLPTKNEFIPTNFEILALEKDATPYPALIKDTAMSKLWFKQDDKFFLPKACLNFEFFSPFAYVDPLHCNMAYLYLELLKDSLNEYAYAAELAGLSYDLQNTIYGMYLSVKGYNDKQPILLKKITEKMATFEIDKKRFEIIKEAYMRSLNNFRAEQPHQHAMYYLRLLMTEVAWTKDELKEALDDVTLPRLKAFIPQLLSRLHIEALLHGNITKQAALGVMQMVEDTLIEHAHTKPLLPSQLVRYREVQLPDRGWFVYQRRNEVHNNCGIEIYYQTDMQSTSENMFLELFCQIISEPCFNTLRTKEQLGYIVFSGPRRANGIQGLRFIIQSEKPPHYLESRVEAFLITMEKAIEDMTEEAFQKHIQALAIRRLDKPKKLSAECAKYWGEIISQQYNYDRDNIEVAYLKTLSKDDIIKFYKEMLAVDAPRRHKVSVHVLAREMDSCPVVGEFPSQNDINLSEAPPLPQPEVIHNMTEFKRGLPLFPLVKPHINFMAAKL
B3: IDE^R429S (protein)
chain: B2 chain with F71E, R389S
B4: IDE^K898A,K899A,S901A (protein)
chain: B2 chain with F71E, K858A, K859A, S861A
B5: wild type rat IDE (rIDE), Example 2 (protein)
chain: B1 chain with F70E
B6: rIDE-V360S (protein)
chain: B1 chain with F70E, V319S
B7: rIDE-Y609F (protein)
chain: B1 chain with F70E, Y568F
B8: rIDE-I374S (protein)
chain: B1 chain with F70E, I333S

Tested on: Abz-GGFLRKHGQ-EDDnp
Assay: Enzyme activity assay, kinetics of wild type rIDE and distal site mutants with fluorogenic substrate
Type: biochemical
Conditions: Abz-GGFLRKHGQ-EDDnp substrate
Protocol: FIG. 17. Effects of distal site mutations. (A) Comparison of the kinetics of wild type IDE with the distal site mutants. Activity was measured with varying amounts of Abz-[…]-EDDnp (SEQ ID NO:3) substrate as indicated. Either hyperbolic (Michaelis-Menten equation) or sigmoidal curves (Hill equation) were fit to the data. (B) Effect of bradykinin on the activity of wild type IDE and the distal site mutants. (C) Activation of wild type IDE and distal site mutants by ATP. Relative activity is the fold activation above the level of the wild type enzyme alone.
The activity of IDE was measured by following the increase in fluorescence upon hydrolysis at the L-R bond of the fluorogenic peptide Abz-[…]-EDDnp (SEQ ID NO:3) on a SpectraMax Gemini XS fluorescence plate reader using an excitation wavelength of 318 nm and emission wavelength of 419 nm. Reactions were carried out in 200 μl volumes containing 50 mM Tris-HCl, pH 7.4, 1.92 μg of wild type rIDE, 4.6 μg of rIDE-V360S, 4.3 μg rIDE-I374S, or 1.63 μg of rIDE-Y609F. For measurements of activation by bradykinin, IDE activity was determined with 10 μM Abz-[…]-EDDnp (SEQ ID NO:3) as substrate in 50 mM Tris-HCl buffer, pH 7.4. The amount of protein was 0.5 μg for wild type rIDE and 5 μg for each of the IDE distal-site mutants. Data were analyzed using Softmax 4.0 (Molecular Devices) and kinetic parameters calculated with Prism (Graphpad Software). […] Under these assay conditions, both wild type and mutant rIDE are almost completely dimeric.

For B1, the Specific activity was 5.2 nmol/min/mg.

Target: T1, Abz-GGFLRKHGQ-EDDnp
Assay: not given
Conditions: not given

In order of falling Hill coefficient:
1. B2  2.1
2. B5  1.8
3. B3  1.7
4. B4  1.7
5. B8  1.12
6. B6  1.07
7. B7  1.04

In order of falling Vmax:
1. B4  141 nmol/min/mg
2. B2  47.2 nmol/min/mg
3. B3  42.3 nmol/min/mg
4. B5  35.5 nmol/min/mg
5. B8  3.45 nmol/min/mg
6. B7  2.6 nmol/min/mg
7. B6  2.01 nmol/min/mg

In order of rising kcat:
1. B3  0.0783 s⁻¹
2. B2  0.0867 s⁻¹
3. B4  0.258 s⁻¹

In order of falling Km:
1. B5  15.9 µM
2. B6  8.61 µM
3. B8  8.5 µM
4. B7  6.86 µM

In the case of B5, the Specific activity is reported as 8,131 nmol/min/mg for the wild type enzyme.
In the case of B1, the Specific activity is reported as 5.2 nmol/min/mg for the E111F mutant.

Target: bradykinin, P01042
Assay: not given
Conditions: not given

bradykinin, P01042, sequence (P01042 whole entry, looked up): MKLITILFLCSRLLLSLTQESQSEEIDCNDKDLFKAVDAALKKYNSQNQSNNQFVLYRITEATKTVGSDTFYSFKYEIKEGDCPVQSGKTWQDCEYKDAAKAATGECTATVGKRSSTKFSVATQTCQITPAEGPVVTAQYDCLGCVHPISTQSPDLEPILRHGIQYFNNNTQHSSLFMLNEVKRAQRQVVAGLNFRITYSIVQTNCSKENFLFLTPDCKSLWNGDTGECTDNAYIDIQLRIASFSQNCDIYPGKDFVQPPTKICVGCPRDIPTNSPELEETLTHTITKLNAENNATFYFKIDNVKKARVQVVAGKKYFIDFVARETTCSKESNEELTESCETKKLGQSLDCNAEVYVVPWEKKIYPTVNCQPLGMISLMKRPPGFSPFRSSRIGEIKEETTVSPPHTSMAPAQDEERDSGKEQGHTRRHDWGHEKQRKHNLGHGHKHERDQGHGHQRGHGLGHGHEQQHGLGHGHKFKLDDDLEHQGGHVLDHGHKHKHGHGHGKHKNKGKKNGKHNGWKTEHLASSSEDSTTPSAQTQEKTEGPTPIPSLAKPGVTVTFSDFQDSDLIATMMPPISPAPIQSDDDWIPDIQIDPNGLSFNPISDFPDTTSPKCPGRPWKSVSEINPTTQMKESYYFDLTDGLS

For B4, the “effect of bradykinin on the rate of Abz-GGFLRKHGQ-EDDnp hydrolysis” value was “the observed rate for IDE^K898A,K899A,S901A was significantly reduced”.

In the case of B5, the “Heterotropic activation of Abz-GGFLRKHGQ-EDDnp hydrolysis” value (“Heterotropic activation” for short) is reported as “approximately 4-fold for the wild type enzyme”.
With B6 the “Heterotropic activation” value was “is also lost in all three mutants”.
In the case of B7, the “Heterotropic activation” value is reported as “is also lost in all three mutants”.
In the case of B8, the “Heterotropic activation” value is reported as “is also lost in all three mutants”.
